Residue numbers refer to the chain shown, from its start. Like-named read-outs stand apart in the source and are kept apart here. Each block holds one binder with its values, some of them ahead of it.
What was measured:
[1] = molecular target: T1, recombinant human CD70 (Flag-TNC-CD70) (human, UniProt P32970 39-193); experiment: inhibition ELISA; Flag-TNC-CD70 captured by anti-Flag mAb; competitor CD27-Fc
T1 construct: extracellular domain; Captured by anti-Flag mAb in ELISA; as 'recombinant human CD70' immobilised on Biacore CM5 chips; TNC is for trimerisation; also called recombinant CD70; human recombinant CD70; not shown: Flag tag and TNC trimerisation domain
T1 sequence (looked up): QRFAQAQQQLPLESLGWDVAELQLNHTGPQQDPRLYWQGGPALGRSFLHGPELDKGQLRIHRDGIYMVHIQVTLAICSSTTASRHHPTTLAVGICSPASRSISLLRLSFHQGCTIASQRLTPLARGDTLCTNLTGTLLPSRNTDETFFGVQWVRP
How it was run: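 Flag-TNC-CD70 captured by anti-Flag mAb, then incubated with CD27-Fc with or without titrated Fabs (periplasmic extracts) or chimeric mAbs. Bound CD27-Fc detected via biotinylated anti-CD27 mAb and strep-HRP, and blocking potency expressed as IC50.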

[2] = molecular target: T2, human CD70 expressed on the surface of cells (human, UniProt P32970 1-193); experiment: cell-based or functional assay
T2 sequence (looked up): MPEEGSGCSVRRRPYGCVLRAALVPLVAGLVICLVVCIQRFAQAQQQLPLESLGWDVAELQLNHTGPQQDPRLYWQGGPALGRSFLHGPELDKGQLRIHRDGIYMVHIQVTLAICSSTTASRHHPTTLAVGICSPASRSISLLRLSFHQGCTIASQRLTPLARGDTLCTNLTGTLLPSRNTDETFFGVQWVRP

[3] = molecular target: T2, human CD70 expressed on the surface of …; experiment: flow cytometry on 786-O cells, anti-human Fc-FITC
Method: Fluorescence of 10,000 cells/condition was measured using a flow cytometer and the median fluorescence was plotted.

[4] = molecular target: T2, human CD70 expressed on the surface of …; experiment: cell-based or functional assay; remark: listed apart in the source
[5] = molecular target: T2, human CD70 expressed on the surface of …; experiment: flow cytometry on MHH-PREB-1 cells; anti-human IgG-FITC
Method: In a further experiment, NHL-derived MHH-PREB-1 cells (1W cells) were incubated with a concentration gradient of chimeric llama-human CD70 inhibiting mAbs (20 μg/ml-0.25 ng/ml) and binding of the mAbs to the cells was detected using anti-human IgG-FITC antibody.

[6] = molecular target: T1, recombinant human CD70 (Flag-TNC-CD70); experiment: inhibition ELISA; Flag-TNC-CD70 captured by anti-Flag mAb; competitor CD27-Fc; remark: listed apart in the source
Method: From selected phage transfected into TG1, individual colonies were picked randomly for growth in 96 well plates. After IPTG induction according to standard protocols periplasmic fractions (penis) containing Fabs were prepared. […] In this assay, Flag-TNC-CD70 is captured by an anti-Flag mAb and binding of CD27-Fc is detected via a biotinylated anti-CD27 mAb and strep-HRP in the absence or presence of CD70 Fabs (FIGS. 2 and 3) or CD70 mAbs (FIG. 4). In FIG. 2B it can be seen that 27B3, which has an identical VH as 9D1, but contains a somewhat different light chain, seems to block binding of CD27 to CD70 more efficiently, which was in line with the better off rate of this Fab as measured on Biacore (data not shown). Table 3 indicates the blocking potency (expressed as IC50) for the various llama-human chimeric mAbs tested in the CD70 inhibition ELISA. […] FIG. 3 is a composite of an experiment testing llama CD70 Fabs for blocking activity (in the inhibition ELISA, see white bars) and for CD70 binding (binding ELISA, black bars). For the binding ELISA, Flag-TNC-CD70 is captured by an anti-Flag mAb and binding of the Fabs is detected using an anti-myc-HRP mAb, which recognizes the MYC tag fused to the C-terminus of the Fd fragment. For comparison purposes, known monoclonal antibodies to CD70 (SGN70 described in US 2010/0129362 A1, clone 1F6; and MDX69A7 described in WO2008/074004 FIGS. 5A and 5B) were tested in parallel. […] Of interest is clone 59D10, which as Fab has no blocking activity, but when converted into a chimeric IgG was antagonistic (see Table 3). Amino acid sequences of the VH and VL domains of binding and blocking llama-derived Fab clones are shown elsewhere herein (Tables 6-9).

[7] = molecular target: T1, recombinant human CD70 (Flag-TNC-CD70); experiment: Biacore; recombinant human CD70 on CM5 chip; Fab injected
Method: (§1) Off-rates of the purified llama-derived anti-CD70 blocking Fabs were determined using the Biacore. Recombinant human CD70 was immobilized on a CM5 Biacore chip. The immobilization was performed in accordance with a method provided by Biacore and by using the NHS/EDC kit (Biacore AB): after activation of the chip, a solution of 50 μg/ml of recombinant CD70 in 10 mM acetate buffer with pH of 5 was prepared and 1 μl of this solution (50ng) was injected resulting in a surface density of approximately 1000 RU.
Fabs for the CD70 mAbs ARGX-110, MDX2H5 and SGN70 were prepared by […] digestion (SGN70 and MDX69A7 are described elsewhere herein, MDX2H5, also referred to as MDX1411, is described in WO2008/074004 FIGS. 1A and 1B). Fabs, at a concentration of approximately 100-400 μg/ml, were diluted 6-fold in hepes-buffered saline (0.1M Hepes, 1.5M NaCl, 30 mM EDTA, 0.5% v/v surfactant P20). They were injected (30 μl) and passed through the flow cells at a flow rate of 30 μl/min. After binding of the Fab to CD70, the off-rate was monitored for a period of 10 minutes. After the dissociation, the flow cell surfaces were regenerated by injecting 5 μl of 10 mM NaOH. Sometimes multiple injections of NaOH were needed to regenerate the surfaces depending on the affinity of the Fabs. Off-rate analysis was done by applying the BIAevaluation software. First, the sensogram of the blank runs were subtracted from those obtained with the coated flow cell. […] Moreover, the off-rate of CD27 for CD70 was determined as well.

[8] = molecular target: T1, recombinant human CD70 (Flag-TNC-CD70); experiment: Biacore; CD70 coated CM5 chip; Fab in periplasmic fraction
Method: Phage eluted from rounds 3, 4 and 5 of selection were transfected into TG1 and plated clonally; individual clones were picked randomly for further analysis. Periplasmic fractions containing Fabs were prepared from IPTG induced small scale cultures the off rate of each Fab was determined using a CD70 coated CM5 chip in a Biacore binding assay. Clones with Fab having off rates similar to that of 27B3 were sequenced.

[9] = molecular target: T1, recombinant human CD70 (Flag-TNC-CD70); experiment: Biacore; recombinant human CD70 on CM5 chip; Fab from papain digestion
Method: as §1, with “Recombinant” for “Off-rates of the purified llama-derived anti-CD70 blocking Fabs were determined using the Biacore. Recombinant”
Fabs were prepared for the CD70 mAbs ARGX-110, MDX1411 and SGN70 by papain digestion. These Fabs, at a concentration of approximately 100-400 μg/ml, were diluted 6-fold in HEPES-buffered saline (0.1M HEPES, 1.5M NaCl, 30 mM EDTA, 0.5% v/v surfactant P20). They were injected (30 μl) and passed through the flow cells at a flow rate of 30 μl/min. After binding of the Fab to CD70, the off-rate was monitored for a period of 10 minutes. After dissociation, the flow cell surfaces were regenerated by injecting 5 μl of 10 mM NaOH. Sometimes multiple injections of NaOH were needed to regenerate the surfaces depending on the affinity of the Fabs. Off-rate analysis was done by applying the BIAevaluation software. First, the sensogram of the blank runs were subtracted from those obtained with the coated flow cell.

[10] = molecular target: T3, rhesus recombinant CD70 (FLAG-TNC-rhesus CD70) (rhesus); experiment: inhibition ELISA; FLAG-TNC-rhesus CD70; competitor CD27-Fc
T3 construct: also called rhesus Flag-TNC-CD70
Excerpt: In this assay, Flag-TNC-CD70 is captured by an anti-Flag mAb and binding of CD27-Fc is detected via a biotinylated anti-CD27 mAb and strep-HRP in the absence or presence of CD70 Fabs (FIGS. 2 and 3) or CD70 mAbs (FIG. 4). In FIG. 2B it can be seen that 27B3, which has an identical VH as 9D1, but contains a somewhat different light chain, seems to block binding of CD27 to CD70 more efficiently, which was in line with the better off rate of this Fab as measured on Biacore (data not shown). Table 3 indicates the blocking potency (expressed as IC50) for the various llama-human chimeric mAbs tested in the CD70 inhibition ELISA. […] FIG. 3 is a composite of an experiment testing llama CD70 Fabs for blocking activity (in the inhibition ELISA, see white bars) and for CD70 binding (binding ELISA, black bars). For the binding ELISA, Flag-TNC-CD70 is captured by an anti-Flag mAb and binding of the Fabs is detected using an anti-myc-HRP mAb, which recognizes the MYC tag fused to the C-terminus of the Fd fragment. For comparison purposes, known monoclonal antibodies to CD70 (SGN70 described in US 2010/0129362 A1, clone 1F6; and MDX69A7 described in WO2008/074004 FIGS. 5A and 5B) were tested in parallel. […] Of interest is clone 59D10, which as Fab has no blocking activity, but when converted into a chimeric IgG was antagonistic (see Table 3). […]

B1: 9G2 chimeric llama-human mAb (antibody, human IgG1, V domains shown)
VH: QVQLVESGGGLMQPGGSLRLSCAASGFTFSSSAMSWVRQAPGKGLEWVSSIYSDSSYTYYADSVKSRFTISTDNAKNTLYLQMNSLKPDDTAVYYCAGSSDYEGSFASWGQGTQVTVSS
VL: QSVVTQPPSLSASPGSSVRLTCTLSSGNSVGNYDISWYQQKAGSPPRYLLYYYSDSVKHQGSGVPSRFSGSSDASANAGLLLISGLQPEDEADYYCSAYKSGSHVFGGGTKLTVLG
IC50 [1]: 0.04 µg/mL | IC50, IL-8 secretion in Raji / HT1080-CD27 co-culture assay [2]: 0.02 nM | EC50 (read off the curve) [3]: ~0.1 µg/mL | IC50 (ng/ml), IL-8 secretion in Raji / HT1080-CD27 co-culture assay [4]: 3 ng/mL

B3: 9D1 chimeric llama-human mAb (antibody, human IgG1, V domains shown)
VH: EVQLVESGGGLVQPGGSLRLSCAASGFTFSVYYMNWVRQAPGKGLEWVSDINNEGGTTYYADSVKGRFTISRDNAKNTLTLQMNSLKPEDTALYYCVRDAGYSNHVPIFDSWGQGTQVIVAS
VL: QAVVTQEPSLSVSPGGTVTLTCGLSSGSVTSSHYPGWYQQTPGQAPRLLIFNTNSRHSGVPSRFSGSISGNKAALTITGAQPEDEADYYCALLNIDDGSTMFGGGTHLTVLG
notes: also called mAb 9D1
IC50 [1]: 0.109 µg/mL | IC50 [6]: 0.73 nM | EC50 (read off the curve) [3]: ~0.03 µg/mL | IC50 (ng/ml), IL-8 secretion in Raji / HT1080-CD27 co-culture assay [4]: 29 ng/mL

B4: 27B3 Fab (Fab, V domains shown)
VH: B3 VH
VL: QAVVTQEPSLTVSPGGTVTLTCGLKSGSVTSTNFPTWYQQTPGQAPRLLIYNTNTRHSGVPSRFSGSISENKAALTITGAQPEDEAEYFCALFISNPSVEFGGGTQLTVLS
notes: Llama-derived Fab; also called Fab 27B3
koff [7]: 8e-05 s⁻¹ | IC50 [6]: ~0.4 nM | koff [8]: 0.00014 s⁻¹

The remaining lines, values ahead:

EC50 [5]: 0.074 µg/mL | IC50 [1]: 0.107 µg/mL | IC50 (ng/ml), IL-8 secretion in Raji / HT1080-CD27 co-culture assay [4]: 10 ng/mL
B2: 59D10 chimeric llama-human mAb (antibody, human IgG1, V domains shown)
VH: EVQLVESGGGLVQPGGSLRLSCAASELSFSISEMTWVRQAPGKGLEWVSGISGVTGGSSTSYADSVKGRFTISRDNDKNTLYLQMNSLIPEDTAVYYCATTSGTYYFIPEYEYWGQGTQVTVSS
VL: QSVLTQPPSVSGSPGKTVTISCAGTSSDVGYGYYVSWYQQFPGMAPKLLIYDVNKRASGIADRFSGSKAGNTASLTISGLQSEDEADYYCASYRSSANAVFGGGTHLTVLG

koff [9]: 0.00014 s⁻¹
B5: ARGX-110 Fab (Fab, V domains shown)
VH: B3 VH with A75S, T78S, T80Y, K87R, P88A, L93V, V97A, Q117L, I119T, A121S
VL: B4 VL with T32D, S62D, S69L, E70G, P82A, E83D, S111G

EC50 [5]: 0.083 µg/mL | IC50 [10]: 0.135 µg/mL | IC50 [1]: 0.154 µg/mL | IC50 (ng/ml), IL-8 secretion in Raji / HT1080-CD27 co-culture assay [4]: 5 ng/mL
B6: 57B6 chimeric llama-human mAb (antibody, human IgG1, V domains shown)
VH: QLQLVESGGGLVQPGGSLRLSCAASGFSFSHYAMSWVRQAPGKGLEWVSGDNTYDGGTRYQDSVKGRFTISRDNGKNTLYLQMNSLKPEDTAVYYCAKDTGRGIMGEYGMDYWGKGTLVTVSS
VL: QTVVTQEPSLSVSPGGTVTLTCGLKSGSVTSSNYPAWYQQTPGQAPRLLIYNTNSRHSGVPSRFSGSISGNKAALTITGAQPEDEADYYCALYMGSGSANAMFGGGTHLTVLG

Reference: US20150266963A1 (ARGEN X B V, published 2015)
